Key:
Test in all cases: pull-down
GST-AP-1 core, wild type [1] = target: T1, GST-AP-1 core, wild type (murine | human, UniProt P22892 1-595; Q10567 1-584; Q96PC3 1-154; P35585 1-423)
GST-AP-1 core, wild type [2] = target: T1, GST-AP-1 core, wild type; remark: listed apart in the source
GST-AP-1 core, wild type [3] = target: T1, GST-AP-1 core, wild type; remark: listed apart in the source

T1 sequence (P22892 1-595, chain 1 of 4): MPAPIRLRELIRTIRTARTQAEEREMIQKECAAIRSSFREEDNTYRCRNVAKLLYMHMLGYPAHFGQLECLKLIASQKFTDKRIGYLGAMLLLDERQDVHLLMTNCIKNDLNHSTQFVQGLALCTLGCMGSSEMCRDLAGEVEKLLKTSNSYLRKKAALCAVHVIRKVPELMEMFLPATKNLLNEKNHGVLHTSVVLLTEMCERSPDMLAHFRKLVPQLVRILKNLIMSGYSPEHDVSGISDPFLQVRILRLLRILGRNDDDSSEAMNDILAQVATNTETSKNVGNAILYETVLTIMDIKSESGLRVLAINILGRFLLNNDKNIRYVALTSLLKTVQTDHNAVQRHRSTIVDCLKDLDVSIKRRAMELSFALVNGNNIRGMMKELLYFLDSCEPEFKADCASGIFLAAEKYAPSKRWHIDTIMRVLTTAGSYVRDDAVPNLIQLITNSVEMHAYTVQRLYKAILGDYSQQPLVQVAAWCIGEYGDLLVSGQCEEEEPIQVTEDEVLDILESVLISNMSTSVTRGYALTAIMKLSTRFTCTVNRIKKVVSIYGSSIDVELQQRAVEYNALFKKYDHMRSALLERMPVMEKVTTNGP
T1 sequence (Q10567 1-584, chain 2 of 4): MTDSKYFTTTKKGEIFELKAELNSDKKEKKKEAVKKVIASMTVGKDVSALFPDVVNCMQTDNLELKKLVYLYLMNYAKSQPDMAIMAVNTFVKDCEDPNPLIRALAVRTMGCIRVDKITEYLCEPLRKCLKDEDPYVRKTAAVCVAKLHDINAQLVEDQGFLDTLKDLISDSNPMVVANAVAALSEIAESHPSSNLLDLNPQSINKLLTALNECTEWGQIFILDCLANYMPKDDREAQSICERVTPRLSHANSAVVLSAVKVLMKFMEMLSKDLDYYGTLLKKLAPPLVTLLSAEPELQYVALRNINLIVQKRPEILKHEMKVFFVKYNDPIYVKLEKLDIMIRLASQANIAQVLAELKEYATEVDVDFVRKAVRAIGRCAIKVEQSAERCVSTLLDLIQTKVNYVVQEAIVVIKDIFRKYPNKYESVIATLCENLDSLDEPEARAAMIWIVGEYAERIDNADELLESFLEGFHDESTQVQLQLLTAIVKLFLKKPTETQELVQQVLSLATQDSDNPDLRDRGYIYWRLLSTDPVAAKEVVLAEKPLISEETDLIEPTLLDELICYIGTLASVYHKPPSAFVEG
T1 sequence (Q96PC3 whole entry, chain 3 of 4): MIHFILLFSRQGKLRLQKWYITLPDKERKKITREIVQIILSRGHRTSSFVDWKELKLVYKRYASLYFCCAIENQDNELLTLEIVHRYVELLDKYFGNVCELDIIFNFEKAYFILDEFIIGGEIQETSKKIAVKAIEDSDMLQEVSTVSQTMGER
T1 sequence (P35585 whole entry, chain 4 of 4): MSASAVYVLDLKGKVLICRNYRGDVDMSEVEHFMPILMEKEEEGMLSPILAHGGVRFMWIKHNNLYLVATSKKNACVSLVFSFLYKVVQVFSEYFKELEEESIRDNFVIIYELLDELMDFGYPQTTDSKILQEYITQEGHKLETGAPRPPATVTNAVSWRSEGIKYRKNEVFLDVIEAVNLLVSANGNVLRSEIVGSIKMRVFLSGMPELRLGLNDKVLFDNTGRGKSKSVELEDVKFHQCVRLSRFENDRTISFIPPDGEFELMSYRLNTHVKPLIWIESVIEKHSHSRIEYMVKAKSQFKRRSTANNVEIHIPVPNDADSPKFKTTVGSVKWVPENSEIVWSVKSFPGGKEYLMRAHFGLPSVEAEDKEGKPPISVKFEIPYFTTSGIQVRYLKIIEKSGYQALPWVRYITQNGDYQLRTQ

Kd (GST-AP-1 core, wild type [1]) [µM] | fold increase of Arf1 bound with 20 μM VAMP4 peptide, against no peptide (GST-AP-1 core, wild type [2]) [fold] | binding result (GST-AP-1 core, wild type [3]) | Binder
20 ± 0.6 | 4 | – | His6-Arf1^Δ1-16 Q71L, GTP-loaded (domain or fragment) not shown
– | – | binds | His-Arf1^Δ16-Q71L A136P/A137H (domain or fragment) not shown
– | – | binds | His-Arf1^Δ16-Q71L W172D (domain or fragment) not shown
